In patent US5683884 (ZymoGenetics, Inc., dated 1997):
Bridges are numbered along the chain shown (N, C = ends). Where no end group is shown, it is not given here.

What was measured:
[1] = target: T1, human calcitonin receptor (cDNA clone pHollex, from T-47D breast carcinoma cDNA), expressed in transfected … (human); assay: 125I calcitonin competition binding on whole cells, clone Hollex2, average
T1 chain: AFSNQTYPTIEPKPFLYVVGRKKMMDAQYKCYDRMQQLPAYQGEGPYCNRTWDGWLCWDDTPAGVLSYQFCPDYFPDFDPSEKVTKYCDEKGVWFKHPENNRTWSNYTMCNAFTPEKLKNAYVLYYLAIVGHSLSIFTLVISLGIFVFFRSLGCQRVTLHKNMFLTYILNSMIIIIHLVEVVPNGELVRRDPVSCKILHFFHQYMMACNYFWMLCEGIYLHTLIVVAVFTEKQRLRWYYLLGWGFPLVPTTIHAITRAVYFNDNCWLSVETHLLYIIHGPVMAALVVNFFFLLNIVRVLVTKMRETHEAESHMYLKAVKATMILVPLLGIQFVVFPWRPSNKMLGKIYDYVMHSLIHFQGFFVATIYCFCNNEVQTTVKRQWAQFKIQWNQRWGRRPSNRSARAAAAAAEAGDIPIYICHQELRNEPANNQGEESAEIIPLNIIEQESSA
Method: (§1) Clones Hollex1 and Hollex2 were tested for receptor-mediated ability to bind calcitonin using a competition assay. T47D cells were used as a positive control and BHK cells transfected with Zem1698 were used as a negative control.
(§2) The cells were plated at a density of 1×10^5 cells/well in a 24-well cell culture dish and allowed to grow for 48 hours at 37° C. and 5% CO_2 in growth medium (described in previous examples). The cells were rinsed in binding medium (500 ml RPMI 1640 (Sigma, St. Louis, Mo.), 1 mg/ml bacitracin (Sigma), and 1 mg/ml BSA (Boehringer Mannheim)) to remove the serum. Three hundred microliters of binding medium containing radiolabeled ^125I agonist and a serial dilution of unlabeled competitor (Table 1) were added to appropriate wells. The cells were incubated for 1.5 hours at room temperature, and then rinsed 3 times with PBS to remove unincorporated radioactivity. Five hundred microliters of 0.25N NaOH was added to each well to solubilize the cells. The samples were collected from each well and CPMs were counted on a gamma counter.

[2] = target: T2, calcitonin receptor of T-47D human breast carcinoma cells (endogenous, positive control) (human, UniProt P30988); assay: 125I calcitonin competition binding on whole T47D cells (positive control), average
T2 sequence: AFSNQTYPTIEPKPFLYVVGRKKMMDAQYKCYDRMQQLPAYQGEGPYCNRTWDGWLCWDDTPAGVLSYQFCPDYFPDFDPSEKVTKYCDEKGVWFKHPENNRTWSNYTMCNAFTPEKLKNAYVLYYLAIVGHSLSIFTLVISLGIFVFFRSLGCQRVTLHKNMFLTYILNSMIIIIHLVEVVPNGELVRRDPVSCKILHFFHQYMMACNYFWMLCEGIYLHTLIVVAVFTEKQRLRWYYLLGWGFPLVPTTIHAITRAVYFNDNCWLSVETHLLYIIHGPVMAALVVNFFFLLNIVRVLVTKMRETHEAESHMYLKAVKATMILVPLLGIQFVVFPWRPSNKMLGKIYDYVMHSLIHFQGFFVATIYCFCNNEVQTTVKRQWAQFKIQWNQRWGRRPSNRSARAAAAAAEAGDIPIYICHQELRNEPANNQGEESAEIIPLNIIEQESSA
Method: as §1, §2

[3] = target: T1, human calcitonin receptor (cDNA clone …); assay: 125I calcitonin competition binding on whole cells, clone Hollex1, average
Method: as §1, §2

[4] = target: T3, human calcitonin receptor (cDNA clone pHollex, from T-47D breast carcinoma cDNA), expressed in transfected BHK cells (human)
T3 sequence: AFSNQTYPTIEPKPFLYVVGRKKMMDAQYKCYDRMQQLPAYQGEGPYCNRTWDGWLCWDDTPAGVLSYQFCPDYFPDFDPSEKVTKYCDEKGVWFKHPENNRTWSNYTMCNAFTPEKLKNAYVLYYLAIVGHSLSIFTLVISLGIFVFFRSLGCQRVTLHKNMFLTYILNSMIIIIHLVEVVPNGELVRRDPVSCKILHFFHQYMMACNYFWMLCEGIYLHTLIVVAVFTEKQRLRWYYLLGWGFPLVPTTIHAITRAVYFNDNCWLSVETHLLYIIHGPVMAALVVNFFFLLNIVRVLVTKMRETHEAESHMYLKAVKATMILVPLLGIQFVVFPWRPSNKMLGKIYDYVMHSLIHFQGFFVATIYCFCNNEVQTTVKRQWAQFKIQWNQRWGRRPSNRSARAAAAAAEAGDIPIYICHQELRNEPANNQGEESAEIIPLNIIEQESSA

[5] = target: T3, human calcitonin receptor (cDNA clone pHollex, from T-47D breast carcinoma cDNA), expressed in transfected BHK cells (human); remark: listed apart in the source

Kd [1]: 0.3 nM
Kd [2]: 0.6 nM
Kd [3]: 0.5 nM
ED50 of labeled inositol phosphate levels (Hollex1) [4]: 9.5 nM
ED50 of cAMP induction (Hollex1) [5]: 0.07 nM
ED50 of cAMP induction (Hollex2) [5]: 0.04 nM
induction of cAMP (radioimmunoassay, scintillation proximity assay) (fold induction) [5]: 12
B1: salmon calcitonin (ligand)
peptide: CSNLSTCVLGKLSQELHKLQTYPRTNTGSGTP-NH2
modifications: disulfide 1-7; ends not checked; also: also used 125I-labelled as tracer
